Data: patent US7968692B2, “Elongase genes and uses thereof” (Abbott Laboratories, priority 1998, dated 2011)

Columns and labels:
Format in all cases: cell-based, Saccharomyces cerevisiae
S. cerevisiae 334 [1] = test: Co-expression of GLELO and M. alpina Δ5-desaturase in yeast
Experimental: Once DGLA (20:3n-6) is produced by the GLA elongase, the Δ5-desaturase can convert it to AA (20:4n-6) in a desired co-expression system. […] Therefore, the GLA elongase has the ability to work with other enzymes in the n-6 PUFA synthetic pathway to produce desirable fatty acids.
To determine whether the above conversion is also true in n-3 pathways, the similar co-expression experiments were carried out in the presence of 25 μM STA. Again, if both enzymes are expressed, the STA substrate will be converted to 20:4n-3 which will then be converted to EPA (20:5n-3) by the Δ5-desaturase.

S. cerevisiae 334 [2] = test: GLA elongase (GLELO) activity and substrate specificity in yeast
Experimental: To further confirm the activity of the GLA elongase encoded by the pRPB2 recombinant plasmid, elongase activity screening was repeated on the yeast clone SC334 containing pRPB2 plasmid. This experiment was also conducted to assure consistent lipid extraction and to detect the activity of GLA elongase by averaging four independent experiments. The S. cerevisiae 334 glycerol stock containing pRPB2 was plated onto minimal media agar plates lacking uracil. Individual colonies were randomly picked and grown in minimal medium lacking uracil, as described in Example VIII. The four independent cultures were combined, and a 5 ml aliquot was used as an inoculum for four separate 50 ml cultures. The cultures were then grown in the presence of GLA and were subjected to fatty acid analysis along with a negative control of S. cerevisiae 334 containing pYES2, as described in Example VIII. The GLA elongase activity of each of the four independent samples of 334(pRPB2) appeared to be consistent with an average conversion of 62% GLA to DGLA.
To analyze the substrate specificity of the GLA elongase, the culture of 334(pRPB2) was tested with different fatty acid substrates besides GLA (e.g., SA(18:0), OA(18:1), LA(18:2n-6), AA(20:4n-6), ADA(22:4n-6), ALA(18:3n-3), STA(18:4n-3), and EPA(20:5n-3)). […] GLA elongase was able to convert 73% of STA to 20:4n-3 (FIG. 25).

S. cerevisiae 334 [3] = test: C. elegans elongase CEELO1 activity in yeast
Experimental: The plasmids pRET-21 and -22 were transformed into S. cerevisiae 334 as previously described (see Example III) and the resulting yeast cultures (334(pRET-21) and 334(pRET-22)) grown in 100 ml of selective media without leucine (Ausubel et al, supra) for 48 hours at 20° C. in the presence of 50 μM GLA and AA. […] The percent conversion of GLA to DGLA by 334(pRET-21) and 334(pRET-22) was 11.1% and 19.4% respectively with an average of 15.25%.
To further confirm the GLA elongation activity of CEELO1, the experiment described in the paragraphs above was repeated with the exception that GLA and AA were added to cultures of 334(pRET-22) separately. […] In this case, the percent conversion appears to be double that described in previous results (see FIG. 48) and may either be due to the absence of the additional substrate (AA) or the subculturing of the yeast.
Additionally, to further determine the substrate specificity of CEELO1, 50 μM of each substrate besides GLA (e.g., SA (18:0), OA (18:1), LA (18:2n-6), DGLA (20:3n-g), AA ([…]), ADA (22:4n-6), ALA (18:3n-3), PA ([…]), EPA (20:5n-3) and STA ([…])) was added individually to cultures of 334(pRET-22) and grown for 48 hours at 20° C., as described in Example XVII. […] The CEELO1 elongated 13% of STA incorporated to ETA (20:4n-3)(see FIG. 62).

yeast = test: Co-expression of CEELO1 and M. alpina Δ5 desaturase in yeast; details: pRET22 and pCGR4 co-expressed, FIG. 63
Experimental: Parallel to Examples III and XI, the C. elegans CEELO1 gene in the plasmid pRET22 and M. alpina Δ5 desaturase (pCGR-4; see Example III) were co-expressed in yeast to determine if AA or EPA could be produced from exogenously added GLA or STA, respectively. When a yeast culture containing both pRET22 and pCGR4 plasmids was grown in the presence of 50 μM GLA or STA in media lacking leucine and uracil, the percent conversion to the final products of AA and EPA, respectively, appeared identical (27% conversion)(see FIG. 63). Thus, simultaneous heterologous expression of CEEL01 and a Δ5 desaturase results in the biosynthesis of AA and EPA from GLA and STA, respectively in yeast.

S. cerevisiae 334 [4] = test: Comparison of MAELO and S. cerevisiae ELO2 PUFA elongase activity in baker's yeast; details: 25 μM GLA; FIG. 12
Source text: The ELO2 gene encoding for the yeast elongase was cloned from an S. cerevisiae genomic library (Origene, Rockville, Md.) using the primers RO514 (SEQ ID NO: 94) (5′-GGCTATGGATCCATGAATTCACTCGTTACTCAATATG-3′) and RO515 (SEQ ID NO: 95)(5′-CCTGCCAAGCTTTTACCTTTTTCTTCTGTGTTGAG-3′) incorporating the restriction sites (underlined) BamHI and HindIII (respectively). The ELO2 gene was cloned into the vector pYX242 at the BamHI and HindIII sites, designated pRELO, transformed into the S. cerevisiae host 334 (Hoveland et al., supra) and screened for PUFA elongase activity. The vector plasmid was used as a negative control and 334(pRAE-5) was grown to compare the PUFA elongase activity. The cultures were grown as previously described with no galactose in the media and 25 μM GLA added as a substrate. […] Additionally, when DGLA produced is expressed as a percent of the total lipids (shown in parenthesis, FIG. 12), the clones 334(pRELO-1) and 334 (pRELO-2) produced 0.153% and 0.2% DGLA respectively, while 334(pYX242) produced 0.185% DGLA. […] The M. alpina PUFA elongase activity is specific for this conversion as evidenced by the higher amount of DGLA produced compared to the control, 334(pYX242).

[5] = 50 μM GLA and AA together, 48 hours at 20° C., FIG. 48
[6] = GLA and AA added separately, FIG. 61

B1: GLELO: M. alpina GLA elongase, 318 amino acids, encoded by GLELO cDNA (SEQ ID NO:2) in plasmid pRPB2 (protein, listed as Mortierella alpina)
chain: MESIAPFLPSKMPQDLFMDLATAIGVRAAPYVDPLEAALVAQAEKYIPTIVHHTRGFLVAVESPLARELPLMNPFHVLLIVLAYLVTVFVGMQIMKNFERFEVKTFSLLHNFCLVSISAYMCGGILYEAYQANYGLFENAADHTFKGLPMAKMIWLFYFSKIMEFVDTMIMVLKKNNRQISFLHVYHHSSIFTIWWLVTFVAPNGEAYFSAALNSFIHVIMYGYYFLSALGFKQVSFIKFYITRSQMTQFCMMSVQSSWDMYAMKVLGRPGYPFFITALLWFYMWTMLGLFYNFYRKNAKLAKQAKADAAKEKARKLQ
S. cerevisiae 334 [1]; 25 μM GLA, co-expressed with Δ5-desaturase (pRPE31), FIG. 26A
  average conversion of GLA to AA: 27%
S. cerevisiae 334 [1]; 25 μM STA, co-expressed with Δ5-desaturase, FIG. 26B
  production of EPA: approx. 40%
S. cerevisiae 334 [2]; 25 μM GLA, four independent cultures, FIG. 24
  average conversion of GLA to DGLA: 62%
S. cerevisiae 334 [2]; identical assay conditions
  utilization of other substrates SA, OA, LA, AA, ADA, ALA, STA, EPA: the only other substrate utilized by the elongase enzyme was STA
S. cerevisiae 334 [2]; substrate STA, FIG. 25
  conversion of STA to 20:4n-3: 73%

B2: CEELO1: C. elegans elongase (SEQ ID NO:4), 288 amino acids, expressed in yeast from pRET-22 (protein)
chain: MAQHPLVQRLLDVKFDTKRFVAIATHGPKNFPDAEGRKFFADHFDVTIQASILYMVVVFGTKWFMRNRQPFQLTIPLNIWNFILAAFSIAGAVKMTPEFFGTIANKGIVASYCKVFDFTKGENGYWVWLFMASKLFELVDTIFLVLRKRPLMFLHWYHHILTMIYAWYSHPLTPGFNRYGIYLNFVVHAFMYSYYFLRSMKIRVPGFIAQAITSLQIVQFIISCAVLAHLGYLMHFTNANCDFEPSVFKLAVFMDTTYLALFVNFFLQSYVLRGGKDKYKAVPKKKNN
modifications: Caenorhabditis elegans
S. cerevisiae 334 [3]; [5]
  DGLA, average of the total lipid in the two samples: 1.79%
  percent conversion of GLA to DGLA: 19.4%
S. cerevisiae 334 [3]; 50 μM GLA and AA together, FIG. 48
  elongation of AA or any endogenous fatty acid: almost no elongation
S. cerevisiae 334 [3]; 50 μM STA, 48 hours at 20° C., FIG. 62
  STA incorporated elongated to ETA (20:4n-3): 13%
S. cerevisiae 334 [3]; 50 μM of each substrate individually, FIG. 62
  elongation of other exogenously added substrates (SA, OA, LA, DGLA, AA, ADA, ALA, PA, EPA, STA): STA was the only exogenously added substrate that was elongated
S. cerevisiae 334 [3]; [6]
  conversion rate of GLA to DGLA: 38.2%
  elongation activity of AA: No elongation activity of AA was detected
S. cerevisiae 334 [3]; average of 334(pRET-21) and 334(pRET-22), 50 μM GLA and AA together
  average percent conversion of GLA to DGLA: 15.25%
S. cerevisiae 334 [3]; endogenous substrate
  conversion rate of endogenous 16:1n-7 to 18:1n-7: 9.12%
yeast; 50 μM GLA
  percent conversion of GLA to final product AA: 27%
yeast; 50 μM STA
  percent conversion of STA to final product EPA: 27%

B3: 334(pRELO-2): individual clone of S. cerevisiae 334 overexpressing S. cerevisiae elongase ELO2 in pYX242 (pRELO) (protein, UniProt P25358 1-347, looked up)
Fatty acid elongase 2: MNSLVTQYAAPLFERYPQLHDYLPTLERPFFNISLWEHFDDVVTRVTNGRFVPSEFQFIAGELPLSTLPPVLYAITAYYVIIFGGRFLLSKSKPFKLNGLFQLHNLVLTSLSLTLLLLMVEQLVPIIVQHGLYFAICNIGAWTQPLVTLYYMNYIVKFIEFIDTFFLVLKHKKLTFLHTYHHGATALLCYTQLMGTTSISWVPISLNLGVHVVMYWYYFLAARGIRVWWKEWVTRFQIIQFVLDIGFIYFAVYQKAVHLYFPILPHCGDCVGSTTATFAGCAIISSYLVLFISFYINVYKRKGTKTSRVVKRAHGGVAAKVNEYVNVDLKNVPTPSPSPKPQHRRKR
S. cerevisiae 334 [4]
  DGLA produced as a percent of the total lipids: 0.2%
  amount of 20:3n-6 or DGLA produced relative to negative control pYX242: twice
